Reference: patent publication US20160272680A1 (Bristol-Myers Squibb, published 2016)
Bridge positions count the residues as written; N and C are the ends. Square brackets hold non-standard residues; d marks the D form. Hyp = O=C(O)[C@@H]1C[C@@H](O)CN1; NMeNle = CCCC[C@H](NC)C(=O)O; NMeA = CN[C@@H](C)C(=O)O; Dap = NC[C@H](N)C(=O)O

Key:
[1] = biological target: T1, hPDL1(19-239)-TVMV-His (human, UniProt Q9NZQ7 19-239); assay: HTRF competition of PD-1-Ig binding to PD-L1-His; code B=0.004-0.0099 µM
T1 construct: Expressed in HEK293T cells; The text says amino acids 18-239, but the construct is named hPD-L1(19-239); The whole entry, including the TVMV site and His tag, is the protein used in the assay; also called PD-L1-TVMV-His; PD-L1-His
T1 sequence (Q9NZQ7 other isoform, or with tags, fused parts or gaps limits assumed): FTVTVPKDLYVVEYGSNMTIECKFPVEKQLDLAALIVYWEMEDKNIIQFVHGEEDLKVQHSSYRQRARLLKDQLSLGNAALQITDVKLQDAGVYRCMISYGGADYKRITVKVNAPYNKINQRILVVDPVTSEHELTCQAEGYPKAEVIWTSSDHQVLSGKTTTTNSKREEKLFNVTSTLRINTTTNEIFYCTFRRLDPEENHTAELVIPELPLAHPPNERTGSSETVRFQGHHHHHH
Description: (§1) Homogenous Time-Resolved Fluorescence (HTRF) Assays of Binding of Soluble PD-1 to Soluble PD-L1. Soluble PD-1 and soluble PD-L1 refers to proteins with carboxyl-end truncations that remove the transmembrane-spanning regions and are fused to heterologous sequences, specifically the Fc portion of the human immunoglobuling G sequence (Ig) or the hexahistidine epitope tag (His). All binding studies were performed in an HTRF assay buffer consisting of dPBS supplemented with 0.1% (w/v) bovine serum albumin and 0.05% (v/v) Tween-20. For the PD-1-Ig/PD-L1-His binding assay, inhibitors were pre-incubated with PD-L1-His (10 nM final) for 15 m in 4 μl of assay buffer, followed by addition of PD-1-Ig (20 nM final) in 1 μl of assay buffer and further incubation for 15 m. PD-L1 fusion proteins from either human, cynomologous macaques, mouse, or other species were used. HTRF detection was achieved using europium crypate-labeled anti-Ig monoclonal antibody (1 nM final) and allophycocyanin (APC) labeled anti-His monoclonal antibody (20 nM final). Antibodies were diluted in HTRF detection buffer and 5 μl was dispensed on top of binding reaction. The reaction was allowed to equilibrate for 30 minutes and signal (665 nm/620 nm ratio) was obtained using an EnVision fluorometer. Additional binding assays were established between PD-1-Ig/PD-L2-His (20 and 5 nM, respectively), CD80-His/PD-L1-Ig (100 and 10 nM, respectively) and CD80-His/CTLA4-Ig (10 and 5 nM, respectively). Binding/competition studies between biotinylated Compound No. 71 and human PD-L1-His were performed as follows. Macrocyclic peptide inhibitors were pre-incubated with PD-L1-His (10 nM final) for 60 minutes in 4 μl of assay buffer followed by addition of biotinylated Compound No. 71 (0.5 nM final) in 1 μl of assay buffer. Binding was allowed to equilibrate for 30 minutes followed by addition of europium crypated labeled Streptavidin (2.5 pM final) and APC-labeled anti-His (20 nM final) in 5 μl of HTRF buffer. The reaction was allowed to equilibrate for 30 m and signal (665 nm/620 nm ratio) was obtained using an EnVision fluorometer.

[2] = biological target: T1, hPDL1(19-239)-TVMV-His; assay: HTRF competition of PD-1-Ig binding to PD-L1-His
Description: as §1, with “The reaction was allowed to equilibrate for 30 m and signal (665 nm/620 nm ratio) was obtained using an EnVision fluorometer.” left out

Binder | IC50 [1] [nM] | IC50 [2] [nM]
{CH2CO}-Y[NMeA]NP[Dap]L[Hyp]WGW[NMeNle][NMeNle]LCG-phenylpiperazine (thioether N-14, Macrocyclic peptide) [Example 13117] | 4 to 9.9 | –
{CH2CO}-Y[NMeA]NP[Dap]L[Hyp]WGW[NMeNle][NMeNle]LCG-{piperazin‑2‑one} (thioether N-14, Macrocyclic peptide) [Example 13114] | 4 to 9.9 | –
{CH2CO}-Y[NMeA]NP[Dap]L[Hyp]WGW[NMeNle][NMeNle]LCG-{methyl 3‑aminopropionate} (thioether N-14, Macrocyclic peptide) [Example 13105] | – | 10
{CH2CO}-Y[NMeA]NP[Dap]L[Hyp]WGW[NMeNle][NMeNle]LCG-{4‑phenylpiperidine amide} (thioether N-14, Macrocyclic peptide) [Example 13088] | – | 50
{CH2CO}-Y[NMeA]NP[Dap]L[Hyp]WGW[NMeNle][NMeNle]LCG-{N‑(3-aminopropyl)morpholine amide} (thioether N-14, Macrocyclic peptide) [Example 13093] | – | 8.17
